We go through one protein from PMC11096400 (Scientific Reports, 2024).

Substrate in this data set: N[C@@H](CCC(=O)O)C(=O)O
The data set is described as follows: purified protein. The note with it: 0.1-1.0 mM NADP, 50 mM Tris, pH 7.5, 293 K, 20.0 °C.

B1: glutamate dehydrogenase (GDH) (Thermococcus profundus) (protein)
chain: MVEIDPFEMAVKQLERAAQYMDISEEALEWLKKPMRIVEVSVPIEMDDGSVKVFTGFRVQHNWARGPTKGGIRWHPAETLSTVKALATWMTWKVAVVDLPYGGGKGGIIVNPKELSEREQERLARAYIRAVYDVIGPWTDIPAPDVYTNPKIMGWMMDEYETIMRRKGPAFGVITGKPLSIGGSLGRGTATAQGAIFTIREAAKALGIDLKGKKIAVQGYGNAGYYTAKLAKEQLGMTVVAVSDSRGGIYNPDGLDPDEVLKWKREHGSVKDFPGATNITNEELLELEVDVLAPAAIEEVITEKNADNIKAKIVAEVANGPVTPEADDILREKGILQIPDFLCNAGGVTVSYFEWVQNINGYYWTEEEVREKLDKKMTKAFWEVYNTHKDKNIHMRDAAYVVAVSRVYQAMKDRGWVKK
In general, Km refers to the concentration of substrate that gives half-maximal velocity. As usually defined, the kcat is the number of substrate molecules converted per active site and unit of time at saturation. Consider B1, for which the Km came to 2380 ± 24 µM and the kcat came to 2.78 ± 0.00 s⁻¹.
